Data published in article PMC9695642, “Conservation of Importin α Function in Apicomplexans: Ivermectin and GW5074 Target Plasmodium falciparum Importin α and Inhibit Parasite Growth in Culture” (International Journal of Molecular Sciences, 2022).

T1: Plasmodium falciparum importin α, biotinylated GST fusion protein (Plasmodium falciparum, UniProt Q8IAW0 1-545, biotin (Sulfo-NHS-Biotin reagent))
T1 construct: importin α (IMPα) of Plasmodium falciparum; also called PfIMPα; IMPα from P. falciparum; source: recombinantly expressed, purified as GST fusion protein
T1 sequence (looked up): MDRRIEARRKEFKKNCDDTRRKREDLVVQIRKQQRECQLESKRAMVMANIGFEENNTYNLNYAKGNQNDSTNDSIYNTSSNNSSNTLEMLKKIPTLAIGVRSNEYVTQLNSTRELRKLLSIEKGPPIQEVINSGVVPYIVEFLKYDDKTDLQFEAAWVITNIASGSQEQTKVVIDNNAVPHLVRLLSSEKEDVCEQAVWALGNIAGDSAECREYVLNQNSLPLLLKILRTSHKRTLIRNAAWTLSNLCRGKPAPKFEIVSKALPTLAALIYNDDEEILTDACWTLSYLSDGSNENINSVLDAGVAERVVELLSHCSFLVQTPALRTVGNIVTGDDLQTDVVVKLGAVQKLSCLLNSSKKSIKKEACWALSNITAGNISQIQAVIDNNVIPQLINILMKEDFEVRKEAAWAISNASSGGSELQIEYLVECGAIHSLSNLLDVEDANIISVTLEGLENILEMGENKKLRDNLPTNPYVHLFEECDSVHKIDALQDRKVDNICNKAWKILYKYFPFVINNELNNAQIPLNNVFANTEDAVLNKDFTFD


Assays:
Details in all cases: both partners purified
[1] = biological target: mammalian IMPα/β1 heterodimer from M. musculus (Mus musculus, UniProt P52293 1-529; P70168 1-876, biotin (Sulfo-NHS-Biotin reagent)); experiment: AlphaScreen or HTRF; biotinylated IMPαs titrated against His-tagged NLS-GFPs (30 nM); apparent dissociation constant
[2] = biological target: T1, Plasmodium falciparum importin α, …; experiment: as above
[3] = biological target: T2, Toxoplasma gondii importin α, biotinylated GST fusion protein (Toxoplasma gondii, biotin (Sulfo-NHS-Biotin reagent)); experiment: as above
T2 construct: importin α (IMPα) of Toxoplasma gondii; also called TgIMPα; T. gondii IMPα; source: recombinantly expressed, purified as GST fusion protein

[4] = biological target: T3, biotinylated GST-MmIMPβ1 (Mus musculus importin β1) (Mus musculus, UniProt P70168 1-876, biotin (Sulfo-NHS-Biotin reagent)); experiment: AlphaScreen or HTRF; His-tagged IMPαs (30 nM) titrated with increasing concentrations of biotinylated GST-MmIMPβ1 (legend: 5 nM)
T3 construct: Mus musculus importin β1 (MmIMPβ1); also called M. musculus IMPβ1; mammalian IMPβ1; source: recombinantly expressed, purified as GST fusion protein

| Binder | Kd [1] [nM] | Kd [2] [nM] | Kd [3] [nM] | Kd [4] [nM] |
| --- | --- | --- | --- | --- |
| PPKKKRKV (domain or fragment) [His-tagged T-ag-NLS-GFP (NLS of simian virus SV40 large tumour antigen fused to GFP)] | 2.8 | 2.9 | 3.9 |  |
| His-tagged Plasmodium falciparum importin α (natural protein, UniProt Q8IAW0 1-545, looked up, importin α (IMPα) of Plasmodium falciparum; also called PfIMPα; His-tagged PfIMPα) MDRRIEARRKEFKKNCDDTRRKREDLVVQIRKQQRECQLESKRAMVMANIGFEENNTYNLNYAKGNQNDSTNDSIYNTSSNNSSNTLEMLKKIPTLAIGVRSNEYVTQLNSTRELRKLLSIEKGPPIQEVINSGVVPYIVEFLKYDDKTDLQFEAAWVITNIASGSQEQTKVVIDNNAVPHLVRLLSSEKEDVCEQAVWALGNIAGDSAECREYVLNQNSLPLLLKILRTSHKRTLIRNAAWTLSNLCRGKPAPKFEIVSKALPTLAALIYNDDEEILTDACWTLSYLSDGSNENINSVLDAGVAERVVELLSHCSFLVQTPALRTVGNIVTGDDLQTDVVVKLGAVQKLSCLLNSSKKSIKKEACWALSNITAGNISQIQAVIDNNVIPQLINILMKEDFEVRKEAAWAISNASSGGSELQIEYLVECGAIHSLSNLLDVEDANIISVTLEGLENILEMGENKKLRDNLPTNPYVHLFEECDSVHKIDALQDRKVDNICNKAWKILYKYFPFVINNELNNAQIPLNNVFANTEDAVLNKDFTFD |  |  |  | 1.3 |
